Assay results as given in patent US20170101466A1 (published 2017).

B1: 5B7 IgG expressed in HEK293 cells (antibody, V domains shown)
VH: QVQLVQSGAEVKKPGASVKVSCKASGGTFSSYAISWVRQAPGQGLEWMGGIIPIFGTANYAQKFQGRVTITADKSTSTAYMELSSLRSEDTAVYYCARVDYDILTGYYMGYFDYWGQGTLVTVSS
VL: DIVMTQSPATLSLSPGERATLSCRASQSVSSYLAWYQQKPGQAPRLLIYDASNRATGIPARFSGSGSGTDFTLTISSLEPEDFAVYYCQQRSNWPITFGQGTRLEIKR
notes: also called 5B7 (293); 5B7-HEK293
B2: mouse TACI (R&D Systems receptor chimera) (receptor, UniProt Q9ET35 2-129, looked up, not shown: a dimerising Fc or GST)
chain: AMAFCPKDQYWDSSRKSCVSCALTCSQRSQRTCTDFCKFINCRKEQGRYYDHLLGACVSCDSTCTQHPQQCAHFCEKRPRSQANLQPELGRPQAGEVEVRSDNSGRHQGSEHGPGLRLSSDQLTLYCT
notes: also called mTACI; TACI rec Mouse
B3: mouse APRIL (ligand, UniProt Q9D777 96-241, looked up)
chain: AVLTQKHKKKHSVLHLVPVNITSKADSDVTEVMWQPVLRRGRGLEAQGDIVRVWDTGIYLLYSQVLFHDVTFTMGQVVSREGQGRRETLFRCIRSMPSDPDRAYNSCYSAGVFHLHQGDIITVKIPRANAKLSLSPHGTFLGFVKL
notes: Bought recombinant protein; also called mAPRIL
B4: 4A2 IgG expressed in HEK293 cells (antibody, V domains shown)
VH: QVQLVQSGGGVVQPGRSLRLSCAASGFTFSSYGMHWVRQAPGKGLEWVAVISHDGSNKYYADSVKGRFTISRDNSKNTLYLQMNSLRAEDTAVYYCAKDRSYYDILTGYYIPYYYGMDVWGQGTTVTVSS
VL: QAVLTQPPSASGTPGQKVTISCSGSSSDIGSNNVNWYQQFPGTAPKLLIHSNNLRPSGVPVRFSGSKSGTSASLAISGLQSEDEADYYCSAWDDSVNGVAFGGGTKLTVLG
notes: IgG from HEK293-FreeStyle cells
B5: 1F4 IgG expressed in HEK293 cells (antibody, V domains shown)
VH: QVTLKESGPTLVKPTQTLTLTCTFSGFSLSTSRVGVGWIRQPPGKALEWLARIDWDDDKYYSTSLKTRLTISKDTSKNQVVLTMTNMDPVDTATYYCARTHTYYDILTGYSYHVYFDYWGQGTLVTVSS
VL: QSALTQPPSASGSRGQSVSISCSGSRSDIGYYNYVSWYQQHPGKAPKLIIFDVNKRPSGVPDRFSGSKSGNTASLTVSGLQPEDEADYYCASYGGRNNLLFGGGTQLTVLG
notes: IgG from HEK293-FreeStyle cells; also called IF4

Columns and labels:
soluble mouse BLyS [1] = molecular target: T1, soluble mouse BLyS (mouse, UniProt Q9WU72 127-309); assay: DELFIA competition, Eu-mBLyS binding to coated BCMA
T1 construct: europium-labelled in DELFIA; also called mBLyS; mouse BAFF (BLyS)
Description: (§1) After 5× washing with 200 ul/well of DELFIA 1× wash solution (PE, Cat #4010-0010), plates were blocked with 3% BSA purified from trace heavy metal amounts (PE, Cat #CR84-100) for 3 hours with shaking at room temperature. Plates were washed again five times at 200 μl/well with DELFIA wash solution.
(§2) The final 3 wells across the plate served as controls (2 wells contained 2,000 pM mAbs for negative and background controls while the third contained no mAbs for positive control). […] After 18-24 hrs at 4° C., plates were read on PE EnVision plate reader with laser excitation, LANCE/DELFIA top mirror, and emission filter Eu-615 with a delay of 400 μs. Data were fit to four parameter (variable slope) inhibition dose response curve using GraphPad PRISM 5.0 software.

mouse APRIL [2] = molecular target: B3; assay: Biacore, antibody captured, APRIL injected
Description: (§3) Recombinant protein NG (Thermo Scientific, Cat #21186) was diluted to 100 μg/ml in 10 mM Sodium Acetate pH 4.0 and then immobilized on the surface of a pre-activated Series S CM4 Biacore chip (GE, Cat #BR-1005-34) using amine coupling. […] Binding response was measured as the difference in total RU increase during 300 second APRIL injection of each individual flow cell and the reference flow cell (e.g., Flow cell 2-1).

human APRIL [3] = molecular target: T2, human APRIL (human, UniProt O75888 105-250, limits assumed); assay: Biacore, antibody captured, APRIL injected
T2 construct: Bought recombinant protein; also called hAPRIL
T2 sequence (looked up): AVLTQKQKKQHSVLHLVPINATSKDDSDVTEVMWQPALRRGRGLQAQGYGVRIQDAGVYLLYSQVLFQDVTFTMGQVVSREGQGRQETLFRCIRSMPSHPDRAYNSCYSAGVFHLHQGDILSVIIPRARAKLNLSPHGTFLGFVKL
Description: as §3

soluble cynomolgus BLyS = molecular target: T3, soluble cynomolgus BLyS (cynomolgus, UniProt A0A2K5V2X4 134-285); assay: ELISA, soluble cyBLyS
T3 construct: Soluble form; also called cyBLyS; Soluble cyBLyS

soluble human BLyS [4] = molecular target: T4, soluble human BLyS (human, UniProt Q9Y275 134-285); assay: blocking of biotinylated soluble hBLyS binding to immobilized mBR3
T4 construct: also called hBLyS; human BAFF (BLyS)

soluble mouse BLyS [5] = molecular target: T1, soluble mouse BLyS; assay: DELFIA competition, Eu-mBLyS binding to coated BR3
Description: as §1, §2

soluble mouse BLyS [6] = molecular target: T1, soluble mouse BLyS; assay: cell-based or functional assay
soluble human BLyS [7] = molecular target: T4, soluble human BLyS; assay: cell-based or functional assay
soluble human BLyS [8] = molecular target: T4, soluble human BLyS; assay: ELISA, soluble hBLyS
soluble human BLyS [9] = molecular target: T4, soluble human BLyS; assay: DELFIA competition, Eu-hBLyS binding to coated BCMA
Description: as §1, §2

soluble mouse BLyS [10] = molecular target: T1, soluble mouse BLyS; assay: ELISA, soluble mBLyS
soluble mouse BLyS [11] = molecular target: T1, soluble mouse BLyS; assay: DELFIA competition, Eu-mBLyS binding to coated TACI
Description: as §1, §2

soluble mouse BLyS [12] = molecular target: T1, soluble mouse BLyS; assay: Biacore
soluble human BLyS [13] = molecular target: T4, soluble human BLyS; assay: Biacore
soluble human BLyS [14] = molecular target: T4, soluble human BLyS; assay: DELFIA competition, Eu-hBLyS binding to coated TACI
Description: as §1, §2

soluble mouse BLyS [15] = molecular target: T1, soluble mouse BLyS; assay: Biacore, antibody captured on chip, BLyS injected, 1:1 model, 25 C
Description: (§4) Recombinant protein NG (Thermo Scientific, Cat #21186) was diluted to 100 μg/ml in 10 mM sodium acetate pH 4.0 and then immobilized on the surface of a pre-activated Series S CM5 Biacore chip (GE, Cat #BR-1005-34) using amine coupling. […] After the dissociation period, the chip was regenerated back to baseline by injecting 10 mM glycine pH 1.5 for 120 seconds over the four flow cells. […] The entire data set was fit to a 1:1 interaction model to give kₒₙ, koff, and Kd values. The assay was run at 25° C. in 1× biacore running buffer HBS-EP+ (GE, Cat #BR-1006-69).

soluble human BLyS [16] = molecular target: T4, soluble human BLyS; assay: as above
Description: as §4

soluble human BLyS [17] = molecular target: T4, soluble human BLyS; assay: DELFIA competition, Eu-hBLyS binding to coated BR3
Description: as §1, §2

soluble mouse BLyS [18] = molecular target: T1, soluble mouse BLyS; assay: Biacore T100, binder captured by anti-human Fc, BLyS injected, 1:1 model
Description: (§5) A Series S CM5 Chip (GE Healthcare) was amine coupled with an anti-human Fc capturing antibody (GE Healthcare Human Fc Kit) to >10,000 RUs. Sample antibodies were diluted in 1×HBS-EP+ running buffer to 0.15 ug/mL and injected for 45 seconds at 10 uL/min. […] Biacore Evaluation software was used to fit the data to a 1:1 Binding Model.

soluble human BLyS [19] = molecular target: T4, soluble human BLyS; assay: as above
Description: as §5

mouse APRIL [20] = molecular target: B3; assay: Biacore, binder captured, APRIL injected at 50 nM
Description: as §3

human APRIL [21] = molecular target: T2, human APRIL; assay: Biacore, binder captured, APRIL injected at 50 nM
Description: as §3

[22] = molecular target: T5, human TACI (R&D Systems receptor chimera) (human, UniProt O14836 2-166); assay: Biacore, binder captured, APRIL injected at 50 nM
T5 construct: also called hTACI; TACI rec Human
T5 sequence (looked up): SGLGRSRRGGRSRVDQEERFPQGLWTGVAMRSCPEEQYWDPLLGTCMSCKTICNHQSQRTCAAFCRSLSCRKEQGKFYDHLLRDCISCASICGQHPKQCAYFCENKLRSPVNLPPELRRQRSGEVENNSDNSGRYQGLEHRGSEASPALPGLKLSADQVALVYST
Description: as §3

soluble human BLyS [23] = molecular target: T4, soluble human BLyS; assay: ELISA, soluble hBLyS; soluble hBLyS ELISA (weak, IC50 28 nM)
soluble human BLyS [24] = molecular target: T4, soluble human BLyS; assay: blocking of biotinylated soluble hBLyS binding to immobilized mBR3; hBLyS/mBR3 receptor blocking assay; no blocking up to 100 nM
soluble human BLyS [25] = molecular target: T4, soluble human BLyS; assay: ELISA, soluble hBLyS; soluble hBLyS ELISA

Binder: B1
- IC50 (soluble mouse BLyS [1]): 0.0013 nM
- binding result (mouse APRIL [2]): no binding (tested: 50 nM)
- binding result (human APRIL [3]): no binding (tested: 50 nM)
- IC50 (soluble cynomolgus BLyS): 0.08 nM
- IC50 (soluble human BLyS [4]): 0.43 nM
- IC50 (soluble mouse BLyS [5]): 0.107 nM
- IC50 mBLyS stimulated, mouse splenic B-cell proliferation (soluble mouse BLyS [6]): 3 ng/mL
- IC50 hBLyS stimulated, mouse splenic B-cell proliferation (soluble human BLyS [7]): 4 ng/mL
- IC50 (soluble human BLyS [8]): 0.1 nM
- IC50 (soluble human BLyS [9]): 0.0018 nM
- IC50 (soluble mouse BLyS [10]): 0.16 nM
- IC50 (soluble mouse BLyS [11]): < 0.0003 nM
- Kd (soluble mouse BLyS [12]): 0.0145 nM
- Kd (soluble human BLyS [13]): 0.4 nM
- IC50 (soluble human BLyS [14]): < 0.0003 nM
- Kd (soluble mouse BLyS [15]): 0.062 nM
- koff (soluble mouse BLyS [15]): 4.2e-05 s⁻¹
- kon (soluble mouse BLyS [15]): 670000 M⁻¹ s⁻¹
- Kd (soluble human BLyS [16]): 0.224 nM
- koff (soluble human BLyS [16]): 4.2e-05 s⁻¹
- kon (soluble human BLyS [16]): 190000 M⁻¹ s⁻¹
- IC50 (soluble human BLyS [17]): 0.0526 nM

Binder: B2
- Kd (soluble mouse BLyS [18]): 0.177 nM
- koff (soluble mouse BLyS [18]): 0.000121 s⁻¹
- kon (soluble mouse BLyS [18]): 682000 M⁻¹ s⁻¹
- Kd (soluble human BLyS [19]): 0.602 nM
- koff (soluble human BLyS [19]): 0.000239 s⁻¹
- kon (soluble human BLyS [19]): 397000 M⁻¹ s⁻¹
- binding result (mouse APRIL [20]): binds
- binding result (human APRIL [21]): binds

Binder: B3
- binding result [22]: binds

Binder: B4
- IC50 (soluble cynomolgus BLyS): 1.46 nM
- IC50 (soluble human BLyS [23]): 28 nM
- IC50 (soluble mouse BLyS [10]): 0.47 nM
- Kd (soluble mouse BLyS [12]): 0.0486 nM
- IC50 (soluble human BLyS [24]): > 100 nM

Binder: B5
- IC50 (soluble cynomolgus BLyS): 0.11 nM
- IC50 (soluble human BLyS [25]): 2.87 nM
